From article PMC4664390

Biological target: CmbHLH2 (Chrysanthemum morifolium)
Sequence (main, as listed by the source): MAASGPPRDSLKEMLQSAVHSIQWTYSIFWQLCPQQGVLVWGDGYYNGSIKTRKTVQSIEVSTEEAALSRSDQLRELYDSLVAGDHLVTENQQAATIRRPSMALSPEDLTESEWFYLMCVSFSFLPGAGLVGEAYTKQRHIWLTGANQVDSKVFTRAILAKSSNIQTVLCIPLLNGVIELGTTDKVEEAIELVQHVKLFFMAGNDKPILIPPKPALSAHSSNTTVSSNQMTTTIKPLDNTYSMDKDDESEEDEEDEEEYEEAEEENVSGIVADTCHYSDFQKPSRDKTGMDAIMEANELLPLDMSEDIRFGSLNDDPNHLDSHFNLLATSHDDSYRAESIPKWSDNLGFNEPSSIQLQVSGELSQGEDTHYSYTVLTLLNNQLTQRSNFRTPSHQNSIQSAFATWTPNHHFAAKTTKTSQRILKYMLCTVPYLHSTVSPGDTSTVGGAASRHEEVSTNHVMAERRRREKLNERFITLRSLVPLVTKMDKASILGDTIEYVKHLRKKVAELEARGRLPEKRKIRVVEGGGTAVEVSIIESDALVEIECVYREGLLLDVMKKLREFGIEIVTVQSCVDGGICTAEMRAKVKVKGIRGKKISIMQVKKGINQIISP

CmDFR promoter activity in dual luciferase assay (LUC/REN) in tobacco leaves on co-expression of CmbHLH2 with CmMYB6, relative to the empty vector set as one: > 40 fold
Substance: CmMYB6 (natural protein)
